From article PMC2821091

Target: porcine dentin sialoprotein (DSP) (porcine)
Test: SDS-PAGE and Western blot under oxidizing

Substance: porcine dentin sialoprotein (DSP) (natural protein)
- stoichiometry N: 2
